Test: soluble on expression in E. coli; label from the status in PepcDB or PDB records

Row | Sequence | soluble on expression in E. coli
1 | MGSSHHHHHHSSGLVPRGSHMASAASYPPIKNTKVGLALSSHPLASEIGQKVLEEGGNAIDAAVAIGFALAVVHPAAGNIGGGGFAVIHLANGENVALDFREKAPLKATKNMFLDKQGNVVPKLSEDGYLAAGVPGTVAGMEAMLKKYGTKKLSQLIDPAIKLAENGYAISQRQAETLKEARERFLKYSSSKKYFFKKGHLDYQEGDLFVQKDLAKTLNQIKTLGAKGFYQGQVAELIEKDMKKNGGIITKEDLASYNVKWRKPVVGSYRGYKIISMSPPSSGGTHLIQILNVMENADLSALGYGASKNIHIAAEAMRQAYADRSVYMGDADFVSVPVDKLINKAYAKKIFDTIQPDTVTPSSQIKPGMGQLHEGSN | soluble
2 | MSDNLPWKTWTPDDLAPPPAEFVPMVESEETIIEEAEPSLEQQLAQLQMQAHEQGYQAGIAEGRQQGHEQGYQEGLAQGLEQGLAEAKAQQAPIHARMQQLVSEFQTTLDALDSVIASRLMQMALEAARQVIGQTPTVDNSALIKQIQQLLQQEPLFSGKPQLRVHPDDLQRVDDMLGATLSLHGWRLRGDPTLHPGGCKVSADEGDLDASVATRWQELCRLAAPGVV | not soluble
3 | MGSDKIHHHHHHMYKKSVDLSLESVLVEIDENKKLMPSRNATVQPVALMRLGLFLPSLKRKGKDTENISIDASSELQSLELARAEGYTDIRITGPRLSMETDFKVWVGIILAFSKYGLNSSTIELPFSEFATFCGFSSKDKDKGLRTRLADSLIRLRSTTIKLASEKDRNGVVSGLLSRGKWDEKDDIMELTADESLWELYQFDRQVLLQMFIIRQLANKGTAQALYTFIESLPERPIPLSFARIKRRLMLTSPNNQQNRVINKAIDELKAVGYLDGDVVKKDGEWHLIITRRTPRPDIKAMSEALKDGE | not soluble
4 | MGSDKIHHHHHHMTRLCRTFQTAPAAIPNDNSAKFLVSGLTSKGFQAPDWLVPDIEDGTAPSMKDEAVDNIIEHIPDHADDFAGDILPRVEWAYDDANARERGIEQVTRLAEAVGEELDGFVFPKVGRLDDVRDAAGVIADAERDAGLPEGTLEMAIILETAPGRSDLREICQYATDSRLSGLVFGPVDYTAELGGRTLDGERPRWDGLLEALSNETSAADIVAIGGPFDQLFHERAGVTYYNAEGYADQVAYEATIGIDGSWSLHPKQTEQANRIHMPTVEEMERDLHKIESFNEAKREGTGAVVVDGQMVDEATYKNFANTVKTVRAIDETHPAQTEAYYDDDLLARARDVELIFG | not soluble
5 | MQNIPPQVQAMLGQLDTYQQQLQLVIQQKQKVQADLNEAKKALEEIETLPDDAQIYKTVGTLIVKTTKEKAVQELKEKIETLEVRLNALNRQEQKINEKVKELTQKIQAALRPPTAG | soluble
6 | MGSDKIHHHHHHMRTNKVVWSEGLFLRPQLFQQQERYLEYYAHKRAATITPFFWGFAQYEIDREALSYGKLVLRSGKGVLPDGTPFDIPGHAELPEPLTITPDHLGKLIYLAVPLRLDNSDETIFDEYDMSSLARFYAYEADLSDTNAIRQGPKPVQLSRLRLKLVSESEMTESWIGLPLAKVRAIQPDGSVLLHLEDYIPPVTGYAASSLLSEWLTHLNGLVKMRADMLAKRLSNSDGKASASAEIVDYLLLQIFNKYEPSLDHLRNIPELPPIVLYQELAKFAGELSTFIRTKTRRPRPAPGYDHGKLYPSIRPLVDDVHELLNQILVRAGQMIPLEPKGNGVWSASVLPNELRSFSNLVLAVHAQLPMDVLQHQFSVQTKISAPQQLHELVRSHLPGLELQRLPVPPRQIPYSAGYVYFELMKSGPFWDKVSNAGAIALHVAGDFPALKMELWGIRDS | not soluble
7 | LGKFSQTCYNSAIQGSVLTSTCERTNGGYNTSSIDLNSVIAAVDGSLKWPSNFIEACRNTQLAGSSELAAECKTAAGQFVSTKINLDDHIANIDGTLKYE | soluble
8 | MRSMWALLSVADKRGIVDFARGLAELGFRLLATGGTYRALREAGLPVTYISDFTGFPEILEGRVKTLHPKVHAALLARPDQEEELKALGLERIGVLAVNLYPFRETVARGASFAEALEQIDIGGPAMLRAAAKNHQAVLPVCDPEDYPRVLEALKAGPSPDFRQKLARKAFAHTALYDAAIAEWLSGEKFPEEKLLALRREASLRYGENPHQEAALYRVVGERGPLLEAQVLQGKAMSFNNYLDAEAAWNLVSEFAEPACVAVKHQNPCGVALGETPLEAYRKAYEADPVSIFGGIVAFNRPLDGPTAEALAEVFLEVVLAPSFSPEARAVLARKKNLRLLQVPFPAQGPYLDLRRLRGGVLLQDADTEDPAEPKVVTERAPTPEEWPDLRFAWKVVKHVRSNAIVVAKGGMTLGIGVGQTNRLAAARHALEAAGERAKGAVLASDAFFPFDDVVRLAASYGIAAIIQPGGSVRDQDSIRAAEEAGIAMVFTGVRHFRH | soluble
9 | SLNFRAEDLASGILRERVKVGASLADVDPMNIDKSVRFDSIGGLSHHIHALKEMVVFPLLYPEIFEKFKIQPPRGCLFYGPPGTGKTLVARALANECSQGDKKVAFFMRKGADCLSKWVGESERQLRLLFDQAYLMRPSIIFFDEIDGLAPVRSSRQDQIHSSIVSTLLALMDGLDNRGEIVVIGATNRLDSIDPALRRPGRFDREFLFNLPDQKARKHILQIHTRDWNPKLSDAFLGELAEKCVGYCGADIKALCTEAALIALRRRYPQIYASSHKLQLDVSSIVLSAQDFYHAMQNIVPASQRAVMSSGHALSPIIRPLLERSFNNILAVLQKVFPHAEISQSDKKEDIETLILEDSEDENALSIFETNCHSGSPKKQSSSAAIHKPYLHFTMSPYHQPTSYRPRLLLSGERGSGQTSHLAPALLHTLERFSVHRLDLPALYSVSAKTPEESCAQIFREARRTVPSIVYMPHIGDWWEAVSETVRATFLTLLQDIPSFSPIFLLSTSETMYSELPEEVKCIFRIQYEEVLYIQRPIEEDRRKFFQELILNQASMAPPRRKHAALCAMEVLPLALPSPPRQLSESEKSRMEDQEENTLRELRLFLRDVTKRLATDKRFNIFSKPVDIEEVSDYLEVIKEPMDLSTVITKIDKHNYLTAKDFLKDIDLICSNALEYNPDKDPGDKIIRHRACTLKDTAHAIIAAELDPEFNKLCEEIKEARI | soluble
10 | ENYLNVKKIENEKNLQISEMSLQYDYYMKQSNDMENIRKISHDIKNHLEALRGNVDYQQKQEYIDGIESKLDIYQSYYKTGNAFLNNLLHAKRLEALEKKIEFKVFADFTPFKRVKNEDLCVIVSNTIDNALRECQLMKADNPKIECLVQLKARKIKGFLSIICENSLRESQAEALRGNLVMETSKEDKKNHGFGVKNIKRVVREYGGEVSFNVVDDMFSVSILIPIEV | not soluble
11 | MNEKKLVEALKRKEDWAYEVLYREFAPKIGSIAKSFLNTDDVDDVVQDVFLRIFKGIKKFRGDSKLSTWIYRIAVNVCKDYLQKYKKRNEFLTDFQEKDNEEEIYIQPEAKENVLDEVLRSITAERVQKALEKLSPEDRLLIKLRDIDGLSYEEIASVLQKPVGTVKSRLHYARKRLGNLLKEGETVER | not soluble
12 | MSLSSVYTMKRIWLQKDKKAYQAWHELMEKAELQTTEALDYTVGIYDDTALIASGSLSGKTIKCVAVCKKYQSENLLTQLVVHLLEKLREENQLHSFLYTKPKNEQIFQSLGFQKVVANQEVLFMEQGKPDFADYLGYLTQHKKAGPASSIVMNANPFTKGHQYLVEKAAQESPHVYVFVLSEDKSLFSKEARFAMVQKGVAHLPNVTVLSTEDYLVSSATFPTYFLKEKAPLEVAAIQATLDATLFKERIAPILEIQQRYVGEEPYSEVTAVYNQAMQQVFGQTITLTIVPRLASDGELISATKVRKAMAEGDKETLKKFLPATSYQYLVEHKKLMREGGSHHHHHH | soluble
13 | MSVKIDVIRVEIPEGTNVIIGQSHFIKTVEDLYETLASSSPHLKFGIAFCEASGKRLIRWDGNDEELIKLAQQTALKIGAGHTFVIYIKNGFPINVLNRIKNVEEVVRIFAATANPLQVLVAETDQGRGVIGVVDGYTPLGIETEADIKERKELLRKFGYKR | soluble
14 | MSLARANIDTDAILPKQFMKSIERTGFGVHLFDGFRYLDAGSLGMDCSRRPENPDFILNWPRYREASILLAGANFGCGSSREHAPWAIEQYGFRVLIASSFADIFRDNCFKNGLLPIVLASETMDRLFDEVSHQVGFELEVDLPRQTISCPAGWCIEFEMDSIRKAHLLEGIDEIGSTLSLSKKIGDFERARRQSHPWFFGAEGHHHHHH | not soluble
15 | MTEKTIEFEGIEPVIIFGPYDSYLKKVREAFPDIRINARGAKITIGGDEPDLTAIEKIFREIIFLADQHGEVLENDVNALVSLALSPVSHPSAALSGDKDVIVETKDYVVKAKTDGQRRMVAEAAGNDIVFAIGPAGTGKTYTAVAIAVAAWKAKKIKRIVLARPAVEAGESLGFLPGDLAQKIDPYLRPLYDALQDMLTAEKLKFLTERRVIEIVPLAYMRGRTLNNSFIILDEAQNASSKQMMMCLTRLGVNSKAIITGDVTQVDLPKEMESGLMNAQKILKGIKGISFVFLDKSDVVRHRLVKDIINAYEHHEEGLRKGAPKEAEL | not soluble
16 | MNVMLSKNYMMEKYNMSTTVGLPQFSHIKIEHFKSHLDALLKNHLEEIDRLLKENHHYTWDNLIYPLDSLADELERFWSPFAHMHAVMDSETIRESYEACLPLLSAYDAAIGHNQDLYEAIKSIDQHSLNPAQKKIIADSIQDFEL | not soluble
17 | MGSDKIHHHHHHMEQNRFKKETKTCSASWPRAPQSTLCATDRLELTYDVYTSAERQRRSRTATRLNLVFLHGSGMSKVVWEYYLPRLVAADAEGNYAIDKVLLIDQVNHGDSAVRNRGRLGTNFNWIDGARDVLKIATCELGSIDSHPALNVVIGHSMGGFQALACDVLQPNLFHLLILIEPVVITRKAIGAGRPGLPPDSPQIPENLYNSLRLKTCDHFANESEYVKYMRNGSFFTNAHSQILQNIIDFERTKASGDDEDGGPVRTKMEQAQNLLCYMNMQTFAPFLISNVKFVRKRTIHIVGARSNWCPPQNQLFLQKTLQNYHLDVIPGGSHLVNVEAPDLVIERINHHIHEFVLTSPLQSSHIPQLTLEERAVMFDRAFDSFKNEALVKTTKQKL | not soluble
18 | MQDPYVKEAENLKKYFNAGHSDVADNGTLFLGILKNWKEESDRKIMQSQIVSFYFKLFKNFKDDQSIQKSVETIKEDMNVKFFNSNKKKRDDFEKLTNYSVTDLNVQRKAIDELIQVMAEFSTEEQQEGPYVKEAENLKKYFNAGHSDVADNGTLFLGILKNWKEESDRKIMQSQIVSFYFKLFKNFKDDQSIQKSVETIKEDMNVKFFNSNKKKRDDFEKLTNYSVTDLNVQRKAIHELIQVMAELSPAAKTGKRKRSQMLFRG | soluble
19 | MGSDKIHHHHHHMINTDHPIRIAIAGLGFGESVHIPASLSNKNIELVGLWHPRPERLKEACNKHNLRAYETWEDLVNDSKVDGIIIATPPAPRYELALEAIKGGKHLLLEKPTCLNAYEVMELQRNALKRNLKIAVDYEYRAVPLFMQAKRIITEKKLDEPYFVKLDWLMSSRANPDRPWNWYSDENSGGGVLGALGTHAFDMIHWLIGPTHSLSAINSTSIEERECPQSKTIKKVTSEDVSISQLQIKSINNNLIPAQVNLSAVTKQSRGFSLEIYGSNGTLVLSSENQNDYVHGFGLWYSNKGDVLKNIQPDSDLSFSKIWTDGRIAPVARIQNWWAQSIADGTPVIPGLVEGLASQIVCDKVKESNSIGMKIEIN | not soluble
20 | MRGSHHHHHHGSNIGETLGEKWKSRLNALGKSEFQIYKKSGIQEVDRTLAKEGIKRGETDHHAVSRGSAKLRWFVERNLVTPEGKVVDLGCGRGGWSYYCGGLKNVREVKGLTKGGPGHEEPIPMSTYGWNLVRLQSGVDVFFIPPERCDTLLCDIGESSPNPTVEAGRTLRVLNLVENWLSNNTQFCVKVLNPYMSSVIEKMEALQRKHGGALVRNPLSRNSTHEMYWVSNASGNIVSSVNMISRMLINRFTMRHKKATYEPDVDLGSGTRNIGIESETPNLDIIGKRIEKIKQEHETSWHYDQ | soluble
